Reference: patent US20220306744A1 (CRESCENDO BIOLOGICS, published 2022)
Residue numbers refer to the chain shown, from its start.

B1: 1.75b (VHH)
VHH: EVQLVESGGGLVKPGGSLRLSCAASGFTFSDSSMTWIRQAPGKGLEWVSYISSGGGVKFYTDSVKGRFTISRDNAKNSLYLQMNSLRAEDTAVYYCAREAPLRLGESPHDAFDISGQGTMVTVSS
B2: 1.85b (VHH)
VHH: B1 VHH with S32Y, I37M
B3: 1.106b (VHH)
VHH: B1 VHH with S32E, M34K, I37M
B4: 1.112b (VHH)
VHH: B1 VHH with S32E, M34I, I37M, T61A
B5: 1.91b (VHH)
VHH: B1 VHH with S32Q, I37M, T61A
B6: 1.80b (VHH)
VHH: B1 VHH with I37M, T61A
B7: 1.81b (VHH)
VHH: B1 VHH with I37V, T61A
B8: 1.93b (VHH)
VHH: B1 VHH with S32A, I37M, T61A
B9: 1.103b (VHH)
VHH: B1 VHH with S32E, M34Q, I37M
B10: 1.83b (VHH)
VHH: B1 VHH with S32E, I37F
B11: 1.113b (VHH)
VHH: B1 VHH with S32E, M34S, I37M, T61A
B12: 1.102b (VHH)
VHH: B1 VHH with S32E, M34V, I37M
B13: 1.90b (VHH)
VHH: B1 VHH with S32V, I37M, T61A
B14: 1.114b (VHH)
VHH: B1 VHH with S32E, M34H, I37M, T61A
B15: 1.87b (VHH)
VHH: B1 VHH with S32K, I37M
B16: 1.76b (VHH)
VHH: B1 VHH with T61A, E89D
B17: 1.86b (VHH)
VHH: B1 VHH with S32A, I37M
B18: 1.110b (VHH)
VHH: B1 VHH with S32E, M34N, I37M, T61A
B19: 1.98b (VHH)
VHH: B1 VHH with S32K, I37M, T61A
B20: 1.97b (VHH)
VHH: B1 VHH with S32I, I37M, T61A
B21: 1.107b (VHH)
VHH: B1 VHH with S32E, M34Y, I37M
B22: 1.78b (VHH)
VHH: B1 VHH with T61A
B23: 1.108b (VHH)
VHH: B1 VHH with S32E, M34A, I37M, T61A
B24: 1.77b (VHH)
VHH: B1 VHH with I37M
notes: also called Humabody 1.77b
B25: 1.109b (VHH)
VHH: B1 VHH with S32E, M34F, I37M, T61A
B26: 1.100b (VHH)
VHH: B1 VHH with S32L, I37M, T61A
B27: 1.92b (VHH)
VHH: B1 VHH with S32E, I37M, T61A
notes: also called Humabody 1.92b
B28: 1.88b (VHH)
VHH: B1 VHH with S32R, I37M
B29: 1.94b (VHH)
VHH: B1 VHH with S32W, I37M, T61A
B30: 1.89b (VHH)
VHH: B1 VHH with S32Y, I37M, T61A
B31: 1.95b (VHH)
VHH: B1 VHH with S32G, I37M, T61A
B32: 1.115b (VHH)
VHH: B1 VHH with S32E, M34G, I37M, T61A
B33: 1.101b (VHH)
VHH: B1 VHH with S32F, I37M, T61A
B34: 1.82b (VHH)
VHH: B1 VHH with S32T, I37M
B35: 1.96b (VHH)
VHH: B1 VHH with S32T, I37M, T61A
B36: 1.105b (VHH)
VHH: B1 VHH with S32E, M34L, I37M
B37: 1.99b (VHH)
VHH: B1 VHH with S32R, I37M, T61A
B38: 1.84b (VHH)
VHH: B1 VHH with S32E, I37M
B39: 1.111b (VHH)
VHH: B1 VHH with S32E, M34W, I37M, T61A
B40: 1.104b (VHH)
VHH: B1 VHH with S32E, M34F, I37M
B41: 1.79b (VHH)
VHH: B1 VHH with I37K, T61A
B42: 1.2a (VHH)
VHH: EVQLVESGGGLVQPGRSLRLSCAASGFTFDDYAMHWVRQAPGKDLEWVSGISWNGGSMGYAASVKGRFTISRDNAKNSLYLQMNSLRAEDTALYYCVKDKGPGLIGSTADYYGLDVWGQGTTVTVSS
B43: 1.13a (VHH)
VHH: B42 VHH with E1Q, K76Q
B44: 1.8a (VHH)
VHH: B42 VHH with D44G, G55S, A62D, G66D, Y112H
B45: 1.11a (VHH)
VHH: B42 VHH with V5L, L11F, L20I, A62E, Q82K, A88V
B46: 1.16a (VHH)
VHH: B42 VHH with E1Q, D44G, L45R, A62E, T91S, L114M
B47: 1.9a (VHH)
VHH: B42 VHH with L11C, L20I, D44G, L45R, A62E, T91S, L114M
B48: 1.14a (VHH)
VHH: B42 VHH with D31G, D44G, L45R, G55S, A62E, T91S, I105T, L114M
B49: 1.18a (VHH)
VHH: B42 VHH with E1Q
B50: 1.10a (VHH)
VHH: B42 VHH with D30A, D44G, L45R, A62E, T91S, I105T, S107T, L114M
B51: 1.21a (VHH)
VHH: B42 VHH with K98R, D99E, I105T, T122M
B52: 1.22a (VHH)
VHH: B42 VHH with K98R, D99E, I105T, V116A, T122M
B53: 1.12a (VHH)
VHH: B42 VHH with E1Q, D44G, L45R, A62D, G66D, I105T, Y112H, L114M
B54: 1.4a (VHH)
VHH: B42 VHH with V5L, D30A, D44G, L45R, A62E, T91S, I105T, S107T, L114M
B55: 1.5a (VHH)
VHH: B42 VHH with D44G, A62D, G66D, S85R, Y112H
B56: 1.3a (VHH)
VHH: B42 VHH with V5L, D44G, L45R, G55S, A62D, G66D, Y112H

biological target: T1, human PD-1 expressed on cells (CHO TREX human PD1 cell line, full-length human PD-1 sequence) (human, UniProt Q15116 21-288); experiment: worded summary of the screens
T1 construct: Also used for human PD-1 on Jurkat reporter cells, on PathHunter cells and on PHA-stimulated human CD4+ T cells; also called CHO human PD1 cells; CHO human PD-1 cells
T1 sequence (Q15116 21-288): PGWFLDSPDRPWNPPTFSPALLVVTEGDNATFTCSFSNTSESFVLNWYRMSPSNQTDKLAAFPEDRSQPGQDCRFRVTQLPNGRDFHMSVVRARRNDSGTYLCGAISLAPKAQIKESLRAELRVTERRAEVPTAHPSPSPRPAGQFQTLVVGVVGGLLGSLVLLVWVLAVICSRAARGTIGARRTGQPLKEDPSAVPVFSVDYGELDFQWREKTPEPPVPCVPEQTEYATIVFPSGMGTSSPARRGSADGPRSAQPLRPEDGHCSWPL

Row | binding result | Binder
1 | binds | B1
2 | binds | B2
3 | binds | B3
4 | binds | B4
5 | binds | B5
6 | binds | B6
7 | binds | B7
8 | binds | B8
9 | binds | B9
10 | binds | B10
11 | binds | B11
12 | binds | B12
13 | binds | B13
14 | binds | B14
15 | binds | B15
16 | binds | B16
17 | binds | B17
18 | binds | B18
19 | binds | B19

Row | binding result | Binder
20 | binds | B20
21 | binds | B21
22 | binds | B22
23 | binds | B23
24 | binds | B24
25 | binds | B25
26 | binds | B26
27 | binds | B27
28 | binds | B28
29 | binds | B29
30 | binds | B30
31 | binds | B31
32 | binds | B32
33 | binds | B33
34 | binds | B34
35 | binds | B35
36 | binds | B36
37 | binds | B37
38 | binds | B38

Row | binding result | Binder
39 | binds | B39
40 | binds | B40
41 | binds | B41
42 | binds | B42
43 | binds | B43
44 | binds | B44
45 | binds | B45
46 | binds | B46
47 | binds | B47
48 | binds | B48
49 | binds | B49
50 | binds | B50
51 | binds | B51
52 | binds | B52
53 | binds | B53
54 | binds | B54
55 | binds | B55
56 | binds | B56
